This series is described as follows: soluble on expression in E. coli; label from the status in PepcDB or PDB records.
With “MQKSKRNAKKKAVSTREKSARSSRGTNKSQRSARSKMAKPRTAETREDAYSCHRTMEEKSTNQQYSALSVRSETTSKVKKLPSKLDASLSARKKGKKESNEEDKKMRDSERQKREKKEVPKEMRQSMMGSVFEEIEGPVSPAPLEKDENKMEWKIDVDPVVLTGDQRMSDVLGKMKDLKKNSGWKKCKVLKANEKTPDNDDEPTEESIYLSARVLQLVKMESLISKEVSKEDQEILRGYCRSNDHKDKVEPIFEAIAVSILEKVASKNEFIRNVSIPGQLRMFAVDENKSKFSTMALLIVRCDLFYYSWNKPALDDEDQLDPTWANMTRRPSVTPPDSQ”, the “soluble on expression in E. coli” value is “not soluble”.

Consider “MLRHNVPIRRDLDKIACDHGFDFHVIDNEIYWDESRAYRFTLRQIEEQIEKPTAELHQMCLEIVERAVRDEQSMQQLAIPPLYWDVIAESWRSRDPSLYGRMDFVWCGKDPVKLLEYNADTPTSLYESSYFQWLWLEDARRSGAIPRDADQYNAIQERLIARFSELYSREPLYFCCCEDTDEDRTTVLYLQDCAQQAGQETRFIYIEELGLGVGGVLTDLDDNVIRRAFKLYPLEWMMRDDNGPLLRKRREQWIEPLWKSILSNKGLLPLLWRFFPGHPNLLPAWFEGEKSLAAPGESSVRKPIYSREGGNVTIFDERQNVIDHADGDYADEPMIYQAFQPLPRFGDSYTLIGSWIIDDEASGMGIREDNTLITKDTSRFVPHYIAG”, for which the “soluble on expression in E. coli” value is “not soluble”.

Take “MPTWEELYKNAIEKAIKSVPKVKGVLLGYNTNIDAIKYLDSKDLEERIIKAGKEEVIKYSEELPDKINTVSQLLGSILWSIRRGKAAELFVESCPVRFYMKRWGWNELRMGGQAGIMANLLGGVYGVPVIVHVPQLSRLQANLFLDGPIYVPTLENGEVKLIHPKEFSGDEENCIHYIYEFPRGFRVFEFEAPRENRFIGSADDYNTTLFIREEFRESFSEVIKNVQLAILSGLQALTKENYKEPFEIVKSNLEVLNEREIPVHLEFAFTPDEKVREEILNVLGMFYSVGLNEVELASIMEILGEKKLAKELLAHDPVDPIAVTEAMLKLAKKTGVKRIHFHTYGYYLALTEYKGEHVRDALLFAALAAAAKAMKGNITSLEEIREATSVPVNEKATQVEEKLRAEYGIKEGIGEVEGYQIAFIPTKIVAKPKSTVGIGDTISSSAFIGEFSFTL”: the “soluble on expression in E. coli” value was “soluble”.

“MSLGTNPFYKIKREGEISLKLKNQLFRLYFLLIYSSLENLQMADKKSPVAVGMTVTPSNQANFVDAGSTTLMNKPGEPTFKLGINLNKVEFKCTEDRKPISVNLKLHNPMAVTVSYKVRCTSADIFRVQPPLGFVKPNETVSIVIWYQNQDKKDAISKNHYFAFYHTTSDGRTARELWANSKVEGVRRLPASFLSTK”: the “soluble on expression in E. coli” value is “not soluble”.

Turning to “MSLTDNQDPLQLVQEFRSIAGEAALVCAEETEDQRDRTQFVNFELEAKLWYLVELLVSFRTSDAPMDDIELHDYNSNAVFKKAQLQEDPELYVVWLIIAWIQENLTVSPRPAELPTTKWSNTLLAGGLKSSDLDCPLREEGVQIHPKDNQDDHCFYKYMYELILAGKYEEVRRECEYSDNLTLGMIMCGLEDYVDPRIDLELAGDYEGHQGIKKRALWRRAVYALSRNPNLDKYEAAIYAFLSGTIPQDIDEQQLDWERMLLVYLNQIWNIKIENYLLEKERINKEELIEQMPSQPLSLSAVLNIVASKHVEESEHPIRVLMGAVILNTISPAVKSFIDMLLDAVKGVDQENDLLSEPYILRILTHLVIFLDKACPGVIEEGDKSKLVTTYVSLLNLYEQYDLVPVYISCLDEQDIMEAYSFFLSNLVGDSSRERQLELCYFFQLPTANILKRTAQRIFNDTEPHYNLADTVTMNSEVTDIDLHLISAVDWLMKGRLHVDAVESIIALCRRFLANGKVNSLSTFFEQHNMDDLIKNYELDQLSAKEEYPEDRFVQEIGQYTKLITGFRQYKNWENSSHTVSSSKNTSALLQQFQAFASTLRGLVTEFLVELTEHTDMPSEDRDMLYNIRSLYTPYLLIELHNSYTSTAEKLGVPSFLQEAVNLSTMVANETDKIYLLFQNSGKLKEYLHLVAKAVALIGHEGHHHHHH”, the “soluble on expression in E. coli” value is “not soluble”.

Consider “REIGENTYIVEGSMTLNDFNEHFDTELESDDVDTIAGYYLTGVGAIPTQEVKEHYEVINKDKRLEFINDKVKDGRVTKLKVIITAAPEEAGE”, for which the “soluble on expression in E. coli” value is “not soluble”.

For the sequence “DITEIEEAMNRQRVAGRVFEASQDGLIVLNHKGVITMVNPAVTKLVGLEIDQLVGQSFIQTIRWRKLQEMMPSIIESIENYGVWQGEVIEQNHLGLLVPMFARVNRIVKCENNGFYDLVIILTD”, the “soluble on expression in E. coli” value was “not soluble”.

In the case of “MGSDKIHHHHHHDKTVKENGRTLHNGIVLPEQWPPSMIDDGVRREMSLPYISNKPTVISVNLGRQLFVDDFLIAETDMERVSHKAMFYENNPVLAPDKEWEYTFERAPYAAPFSDGIWYDESEQKFKMWYLAGAGSMHKHRQSFYTCYAESKDGKHWEKVNMDIVPGTNIVDTCDRDAATVWLDKMCPEPEKRFKLFNVEKHSGGWKIILKYSKDGIHWSEGVAQSGPVGDRTTAFYNPFTQKWAISLRQGSKADGRSRGYLENEDPEMAVSVAHSLAKGIKDKNIVLWFTPSDKELPHPEFPDVRPAIYNFDAMPYESVMLGFYAMWKGPENDLCGKLGIQKRNEIGMGYSRDGFHFYRPSYEPVMGVNETEGAWNWGNMQSVIGVPLIVGDSLYLYSSGRMKNKVMWDGFTSTGLATLRRDGFVSMHTDTEGVLVTEKIKFDGNHFFVNAQAKDLQVEIMDENGNVITGFSREDCKEMNDLNSTKQLVTWKSGKKLAALSGKIVKVKFYVTCGDLYAFWISPWDTGESRGYTGGGGPGLNPCGIDIK”, the “soluble on expression in E. coli” value is recorded as “not soluble”.

Take “MQTASVPAGIAERRTRAWAPYIDAKLGFRNHWYPVRLSAEVAEASPVPVQLLGEKVLLNRVDGVVHAIADRCLHRGVTLSDKVECYSKATISCWYHGWTYRWDNGKLVDILTNPTSVQIGRHALKTYPVREEKGLVFLFVGDQEPHDLAEDVPPGFLDADLAVHGQHRVVDANWRMGVENGFDAGHVFIHKSSILLDGNDIALPLGFAPGDPEQLTRSVTGEGAPKGVFDLLGEHSVPIFEATIEGQPAIQGHMGSKMVAISISVWLPGVLKVDPFPDPTLTQFEWYVPIDEGHHLYLQMLGRRVGSEEEARSFEAEFREKWVELALNGFNDDDILARRSMEPFYADDRGWREEVLFESDRAIIEWRRLASQYNRGIQTRDVRHHHHHH”: the “soluble on expression in E. coli” value is “soluble”.

Consider “MRGSHHHHHHTDPALRAYDNLKSLGITNPEEIDRYSLRQEANNDILKIYFQKDKGEFFAKSVKFKYPRQRKTVVADGVGQGYKEVQEISPNLRYIIDELDQICQRDRSEVDLKRKILDDLRHLESVVTNKISEIEADLEKLTRKGLCGR”, for which the “soluble on expression in E. coli” value was “soluble”.

As to “MAHHHHHHMRHCHMSFAYCFCPFSAHRSASSQGYTRLMRRLSGSTCLLTGVTRAGRWLPTTAPCLSLCSFFLTASRRKQSTSGIGGDVRDIEETHPDFQPRLVSADLAEDEIAMVKKDIDDTIKSEDVVTFIKGLPEAPMCAYSKRMIDVLEALGLEYTSFDVLAHPVVRSYVKEVSEWPTIPQLFIKAEFVGGLDIVTKMLESGDLKKMLRDKGITCRDL”, the “soluble on expression in E. coli” value is listed as “not soluble”.

Regarding “MSTTVGRPSNEIASCQVCHSTERTRLYFGITSCAACAAFFRRSDGIRYMCTATNSCTISHDMKFFCRACRYTSCIRAGMVMSRNALATARKAPNNIIPREPTPRSVPSLEEVDGFSKILNISNGDLLKYYVKEVESIMAQQRYGEQKNALQVKSVNDLMIVTAYQEGTSLESCFNCPGVDILYNEDVEVVHKYFKFSNTWIDSLLAPTSPLDPSCNERISEFIHLLKSTLGSTLAQLNLNIIEYAAFKSFCIWKLVYHKTSISMKIVAQEHYEGVTSALRKYYRKNIKMSELEMATRIGDITLQIITVSNLYNDMARMYHQTGLQL”, the “soluble on expression in E. coli” value is “not soluble”.

Take “MLRLWEELNRVENLFLELLDDPKKKDVLLYLICYCQLVRRDGEYEVELPKLINCAEKPYKYISGNWQDVLLELGVLYLKDKKGKVYTGKEILLVKNPEGFKVGILPDYREDFYKFYTKLLKYWSVLNSRRTLGSNTTPDYYTPLLVHTFNEKLFKEAQYFSEILAMRFPKEKNLFLSVKLVSEFYREYAKTGRVKADNLNDAINFLSDTPDVFYSVNVKKFKKDIKKFLENLNKGEFYYITIEFASENRGKKRSILSKLWNFIKSLGGKRWNSRSSGMDYYSFIEHLLKKHRRQMMRSLESSTPRLQGT”: the “soluble on expression in E. coli” value is on record as “not soluble”.

For “MGSDKIHHHHHHMNHLNDKVNEIKDNFYGLIGHAYLEKYITKPIVDEDKLRFLYTMLAEKLPKKDTKLFTLSALLVDAALEIHEAVSLHNIQTDPIKKNRQLNVLAGDYYSSLYYYLLADSRHLPIIQVFSHSIQEINEYKMKLYDGKNIDFDEVKNNVDKVDTFLLQNLAEHFQLTTWKKAISVFFHLKRLVHEREAWINGKATPLMKAIVTELFGSNRPVDELKKDDQLQVLELWEEKVEEGKDHLLEHVKALLPKFERFFVDHLNDLFGPDYIHEKVAEEG”, the “soluble on expression in E. coli” value was “not soluble”.

Consider “GMPTDDIVQLLKGQEEAWNRGDLDAYMQGYWQNEQLMLISNGKFRNGWDETLAAYKKNYPDKESLGELKFTIKEIKMLSNYAAMVVGRWDLKRLKDTPTGVFTLLVEKIDDRWVITMDHSSD”, for which the “soluble on expression in E. coli” value was “soluble”.

Consider “EGEPIVEYQVKDLLYDQGVRVELHGKDLVSRVGEMTLDKVYYAFSKFFGLDIVTDYLEVPQDIPPRPPALCPGCPHRSSFIDLKKAITMASFKPNETFISG”, for which the “soluble on expression in E. coli” value is listed as “not soluble”.

In the case of “MRKRARIIYNPTSGKELFKRELPDALIKLEKAGYETSAYATEKIGDATLEAERAMHENYDVLIAAGGDGTLNEVVNGIAEKPNRPKLGVIPMGTVNDFGRALHIPNDIMGALDVIIEGHSTKVDIGKMNNRYFINLAAGGQLTQVSYETPSKLKSIVGPFAYYIKGFEMLPQMKAVDLRIEYDGNVFQGEALLFFLGLTNSMAGFEKLVPDAKLDDGYFTLIIVEKSNLAELGHIMTLASRGEHTKHPKVIYEKAKAINISSFTDLQLNVDGEYGGKLPANFLNLERHIDVFAPNDIVNEELINNDHVDDNLIEEMAGDPLEHHHHHH”, the “soluble on expression in E. coli” value is “not soluble”.

Turning to “MGSDKIHHHHHHAAQARLDKARAMYENNEFFGAKNEIDSIRALYPKEVKVLKQGLTLMRQVEVKEAERNIAFCDSLLPIKLEEVEGLKKGFAFEKDSVYEEIGNYIWKQQTIERNVQRCYVRCGVNEEGEMYLASVYYGGRPIEHTGIKLSLKDGQFAETASIPYDGGLNYRFKDMGSTTEVVTYKGEHCVDAVKFIYDNEKERIKVEYTGGKPYIIYMADADKKAIVNTFNLATVLSDIKSMNTLKEKSEKKIAYLKNKLEE”, the “soluble on expression in E. coli” value was “not soluble”.

For “SIPWNLERITPPRYRADEYQPPDGGSLVEVYLLDTSIQSDHREIEGRVMVTDFENVPEEDGTRFHRQASKCDSHGTHLAGVVSGRDAGVAKGASMRSLRVLNCQGKGTVSGTLIGLEFIRKSQLVQPVGPLVVLLPLAGGYSRVLNAACQRLARAGVVLVTAAGNFRDDACLYSPASAPEVITVGATNAQDQPVTLGTLGTNFGRCVDLFAPGEDIIGASSDCSTCFVSQSGTSQAAAHVAGIAAMMLSAEPELTLAELRQRLIHFSAKDVINEAWFPEDQRVLTPNLVAALPPSTHGAGWQLFCRTVWSAHSGPTRMATAIARCAPDEELLSCSSFSRSGKRRGERMEAQGGKLVCRAHNAFGGEGVYAIARCCLLPQAACSVHTAPPAEASMGTRVHCHQQGHVLTGCSSHWEVEDLGTHKPPVLRPRGQPNQCVGHREASIHASCCHAPGLECKVKEHGIPAPQGQVTVACEEGWTLTGCSALPGTSHVLGAYAVDNTCVVRSRDVSTTGSTSEEAVTAVAICCRSRHLAQASQELQ”, the “soluble on expression in E. coli” value is recorded as “soluble”.

For the origin of these results see the DeepSol protein solubility set.
